test: soluble on expression in E. coli; label from the status in PepcDB or PDB records

Row | Sequence | soluble on expression in E. coli
1 | MAHHHHHHMRKGKSPSSFFSLHKKYLLTGVTILSFIFMFQYKYHEVLTVYEDKTNVQQSSRLFWTRLLFGRTRSRITGRIFNIEIPHSYRLYVYNFFIKYLNINKEEIKYPIESYKSLGDFFSRYIREDTRPIGDLNEYSIVSPCDSEIVDFGELTSNYLDNVKGIKFNIKTFLGSDMIKKYNDDSTSFYYAIFYLSPKKYHHFHAPFNFKYKIRRHISGEVFPVFQGMFKIINNLFDINERVILSGEWKGGHVYYAAISAYNVGNIKIVNDEDLLTNNLRTQLSYMGGDINTKIYDHYKDLEIGDEVGEFKVGSSIIVIFENKKNFKWNVKPNQQISVGERIGGVDQPKQPKNKFIKIRS | soluble
2 | MGASQSAEQEARPEVVRIDRNEIPEEYKTVGVSSDVVSRVNATRVAGNDGESDRLRQELAREREEKARLREDMAKLSQLQQRKTAGISAAPVSISGNDLEERKKIFDDTVERVQKQFFAYHRENVCQDNENEIVRCLQENPGRVLKCAPLTEAFEKCVGEFRQQVLKGN | not soluble
3 | MGSSHHHHHHGMASMTGGQQMGRDLYDDDDKDPSSRSMAKLTKPKTEGILHKGQSLYEYLDARVLTSKPFGAAGDATTDDTEVIAASLNSQKAVTISDGVFSSSGINSNYCNLDGRGSGVLSHRSSTGNYLVFNNPRTGRLSNITVESNKATDTTQGQQVSLAGGSDVTVSDVNFSNVKGTGFSLIAYPNDAPPDGLMIKGIRGSYSGYATNKAAGCVLADSSVNSLIDNVIAKNYPQFGAVELKGTASYNIVSNVIGADCQHVTYNGTEGPIAPSNNLIKGVMANNPKYAAVVAGKGSTNLISDVLVDYSTSDARQAHGVTVEGSDNVINNVLMSGCDGTNSLGQRQTATIARFIGTANNNYASVFPSYSATGVITFESGSTRNFVEVKHPGRRNDLLSSASTIDGAATIDGTSNSNVVHAPALGQYIGSMSGRFEWRIKSMSLPSGVLTSADKYRMLGDGAVSLAVGGGTSSQVRLFTSDGTSRTVSLTNGNVRLSTSSTGYLQLGADAMTPDSTGTYALGSASRAWSGGFTQAAFTVTS | soluble
4 | MKLKELVKQFIPMNYWNTRRKASIIRQQGKVADFWAPILKAYYNGEIERYSLKPKKKLGTQKVIWQYWGQGIDKDELPEIIQICFDSVDRNKNDYQVIRLTDITISEYIDLPDFVWRKREYVQFTRTFFSDLLRVALLSTYGGVWLDATILLTGSIPAVYEKTDFFMYQRSDEEKNKKYWENVYAYYFGWEPNFKVRMLSSILFAQKESEIISTLTDLLLYFWKTQDSLPDYFCFQILFNELVANYRPAENCPIVNDCIPHIIQTKINGTYDDVSFEEALELSNIHKMTYFDAAAMIRLKMVLRLARNALEHHHHHH | soluble
5 | MKSRFSARQQNSDNTADENKSTTTAVLLTNLGSPDEPTTSAVRRYLREFLSDTRVVEIPRLIWLLILHGIILRIRPAKSAKLYQTVWQDDGAPLISITAAQKEKMATKIKSQYGDNVIVDFAMRYGNPSIASVLQKFQQQGVDKLVVLPLYPQYAGPTTASTFDAVSKELQKWRYIPSIHFLNTYHNNPFYIQALAETVKEHVASHGKPERLVLSYHGMPELFHKWGDPYYDFCQE | not soluble
6 | MGHHHHHHGGHMSLIGFLTDWGLKSHYVGVAKAVIKRINPSAEIIDITHEVEPFNVRKASHVLYRASLDFPPSTVFLVVVDYGVGTSRKAIVMKTKNDQYFVAPDNGVLTVVAEEYGVAEIREIENRELFYKKNPSFTFHGRDIFAPVAAHLDMGLPLERVGDRLLSYEVLKMRKPVVENEKVIGEVAIVDTFGNVSTNIPFDLFLKLSVDFDDVVRVRVGRKEFKAAVAKAFGDVDTGELLVHPDSAGFLEIAVNLGDASQVLSVKEGDEIEICREGGS | soluble
7 | MSLTSAPCPFRVNRIDLRVLPMRTRFPFRYGIASLVALPHLFVTVELEVNGQSVIGRTSEGLPPKWFTKDPGTPNELEVAGMLAVIQNAVRLATLHGREPVTWYPLVRQLAAEQKLWASRHDHPPLLWNLGISLMERALLDALCQAWQEPLHAVLRGPALGIRWSELHPSLADDAVPPFLADPPASQLALRHTIGLADPLTAADIPSGEEVNDGLPHTLDDCIRAYGLRYFKIKLSGNLEADRHRLTSVASVIRQHASPDFSATLDGNENFQDLTAFREWFEALNSDPGLKDFMPHVLWIEQPLHRDSALNPELFDAFRNWPEAPRLIIDESDGESGALQTALELGYSGGSHKNCKGILKGLANAATLHAFRAAHPERDFILSGEDLANVGPIPLTQDLAMQALLGIPHVERNGHHYFRGLSMYPDGIGVSAATLAAHPDLYHQLPDGLATLNIREGFIAIDSVNQAPFGTPVAPPVDQLPTVKEWILQGGLGALEGEGHHHHHH | soluble
8 | MLVSRNLAKTISNSKNAKNIHTSCRKFAPVPMTYASYSSPELDRNSPLVIVHGLFGQKQNWNSVGKALHKKLEAPVYAVDVRNHGSSPHTETMSYTEMAEDLVLFIDKVKEETKKTRVNLLGHSMGGKIVMRLAIDSKWSDRIEKLIVEDVSPKGYSRRHLEFRELIKTMRNVDLCRTRKEILKDLESAIPDLAMRQFILTNLQPSSENEGQMEWKININTIDSHVDEILGYTLPVGSFRGPTLFLHGANSGYVPDDHKPDIKCLFPQVQFDAIPDSGHWVHAEKPQLFINSVYKFLKP | not soluble
9 | MGFPIPDPYVWDPSFRTFYSIIDDEHKTLFNGIFHLAIDDNADNLGELRRCTGKHFLNEQVLMQASQYQFYDEHKKEHETFIHALDNWKGDVKWAKSWYVNHIKTIDFKYKGKI | soluble
10 | MKNTLKLPLLIGVAGGTSCGKSTIVERIIENLNANAKQSGRQIDIVHLSLHSFYRELSAEEKILAREGKFNFDHPDQINFDLLAETLQNMIDGKTVEIPKYDMITSSMNGTVTVEPAKVIIIEGILLLYDERVRKLLSTKLFVEKNAESRLRNRLATYIRDYHRAPLSIIRQYTEFVKPAFEEFCRPTKKYADVIIPRGADNHVATDLIAKNLQVRFKRQNNALFDFEL | not soluble
11 | TNTEEFCSGCHAPIVKEIQETIHYSNRSGVRAICSDCHVPHNWTDKIVRKVQASKELFAHYVTKTIDTEEKFKERRAHLAEREWHRMKENNSQECRNCHEFDYMDFSEQGPRSAKQHSTALASGEKTCVDCHKGIAHKL | not soluble
12 | MQSVDVAIVGGGMVGLAVACGLQGSGLRVAVLEQRVQEPLAANAPPQLRVSAINAASEKLLTRLGVWQDILSRRASCYHGMEVWDKDSFGHISFDDQSMGYSHLGHIVENSVIHYALWNKAHQSSDITLLAPAELQQVAWGENETFLTLKDGSMLTARLVIGADGANSWLRNKADIPLTFWDYQHHALVATIRTEEPHDAVARQVFHGEGILAFLPLSDPHLCSIVWSLSPEEAQRMQQASEDEFNRALNIAFDNRLGLCKVESARQVFPLTGRYARQFASHRLALVGDAAHTIHPLAGQGVNLGFMDAAELIAELKRLHRQGKDIGQYIYLRRYERSRKHSAALMLAGMQGFRDLFSGTNPAKKLLRDIGLKLADTLPGVKPQLIRQAMGLNDLPEWLRLEHHHHHH | not soluble
13 | MSGEGMTAVSEPVQLTVPQMLAQLQGTDTSLRYYAAWWLGKFGLETATAAERQAIVSALIAALADEADRTELGGYPLRRNAARALGKLGDRQAVPALIECLRCEDFYVREAAAIALGQLGDPRAIAPLQSLLEGGVAMARLVPGRPHLVQPVEAVIESLGHLGATEAIALIEPFLAHEMPRVQFAAARALFQLTGDAVYGDRLLAALNSEDVQLRRTALLDLGAMGYLPAAEAILQAGVEASFKLIALHGILGQQLRQAAPAEQTLSLFQGLDQLLLEHHHHHH | soluble
14 | DVKLVQSGPGLVAPSQSLSITCTVSGFSLTTYGVSWVRQPPGKGLEWLGVIWGDGNTTYHSALISRLSISKDNSRSQVFLKLNSLHTDDTATYYCAGNYYGMDYWGQGTSVTVSSAETTAPSVYKLEPVSSVTLGCLVKGYFPEPVTLTWNSGSLSSGVHTFPAVLQSDLYTLSSSVTVTSSTWPSQSITCNVAHPASSTKVDKKIEPRG | soluble
15 | GPLGSMATVPVYCVCRLPYDVTRFMIECDACKDWFHGSCVGVEEEEAPDIDIYHCPNCEKTHGKSTLKKKRTWHK | soluble
16 | MKNPCNVIAIIGKPRDQQAIQTHKELYEWLTSEGYKVFIDDRLAAILDEIPQNHFASLVELGKNADLAIVVGGDGNMLGAARILSRFDVPVIGVNRGNLGFLTDLNPDDFQAALKAVLAGEYIEEERFLLEAEVHRHGQIKSHNAALNEAVLHPGQIAHMIEFEVYIDESFAFSLRADGLIVSTPTGSTAYSLSGGGPILSPSLNAISLVPMFPHTLSSRPLVVDGKRRIKLIVSPENRGTQEVSCDGQVSLPVSPGDEIHIYQSPNVLKLIHPKDYSYYHVLRNKLGWSSKLFMAGDPLEHHHHHH | soluble

— the DeepSol protein solubility set
